# Assays:
# Test in all cases: BLI
# full length H7 HA trimer [1] = molecular target: T1, full length H7 HA trimer (influenza A virus, subtype H7 (strain …))
# full length H7 HA trimer [2] = molecular target: T1, full length H7 HA trimer; remark: listed apart in the source
# m12 = molecular target: m12
# m13 = molecular target: m13
# m15 = molecular target: m15
# m11 = molecular target: m11
# m14 = molecular target: m14
# m9 = molecular target: m9
binder,measurement,setting,value
"CT149 Fab (Fab, V domains shown) VH: QVQLVQSGAEVKKPGASVKVSCKTSGYSFSTYGVSWVRQAPGQGPEWVGWISAYTGITDYAQKFQGRVTLTTDATTATAFLDLRSLRPDDTATYFCARDKVQGRVEVGSGGRHDYWGQGTLVIVSS VL: EVVLTQSPGTLALPPGERATLSCRASHRVGSTYIAWYQQKSGQAPRRLIYGASNRATDIPDRFSGSGSGTDFTLTIRRLEPEDSAVYYCQQFSVSPWTFGQGTRVEIK",Kd,full length H7 HA trimer [1],3.7 nM
same,koff,full length H7 HA trimer [2],0.0031 s⁻¹
same,Kd,m12,8.2 nM
same,koff,m12,0.003 s⁻¹
same,Kd,m13,2.7 nM
same,koff,m13,0.0018 s⁻¹
same,Kd,m15,9.8 nM
same,koff,m15,0.0034 s⁻¹
same,Kd,m11,9 nM
same,koff,m11,0.0033 s⁻¹
same,Kd,m14,7.2 nM
same,koff,m14,0.0029 s⁻¹
same,Kd,m9,7 nM
same,koff,m9,0.003 s⁻¹

# — article doi:10.1101/497123 (2018)
